Broadly, the koff is the first-order rate constant of dissociation. The term kon denotes a measure of how fast the partners come together. A word on the Kd: it is the free concentration of one partner at which half of the binding sites on the other are occupied at equilibrium, for simple one-to-one binding.

The values that follow come from PMC6680903 (Molecules, 2019).

Holding throughout (conditions): both partners purified
In assay [1] the target is T1, β2-Microglobulin (Homo sapiens, UniProt P61769).
T1 construct: human β2-microglobulin; Amine-coupled to a CM5 chip (150 RU); also called antigen β2M; source: expressed and purified as previously described [27]
The assay can be described thus: SPR; Biacore T200; β2M immobilised on a CM5 chip to 150 RU; VHH samples after the modification procedure (NHS-Fluo:VHH 0, 1, 5 or 20; 2 h at 4 °C, ultrafiltration) in 2-fold serial dilution, 30 μL/min, HBS-EP+, 25 °C; 1:1 model with drift and RI2.

For assay [2], the target named is T1, β2-Microglobulin. The assay can be described thus: SPR; Biacore T200; β2M immobilised on a CM5 chip to 150 RU; VHH samples 'Origin' (no treatment) in 2-fold serial dilution, 30 μL/min, HBS-EP+, 25 °C; 1:1 model with drift and RI2. (SPR reads the build-up and loss of mass on a sensor chip optically.)
In assay [3] the target is T2, β2-Microglobulin (β2M) (Homo sapiens, UniProt P61769).
T2 construct: β2-microglobulin, human (the title says anti-human β2-microglobulin VHHs); Probably the mature protein without the signal peptide (surmised); also called antigen β2M; human β2-microglobulin; source: expressed and purified as previously described [27]
The assay can be described thus: SPR; Biacore T200; β2M immobilized on a CM5 chip to 150 RU; 2-fold serial diluted VHH at 30 μL/min in HBS-EP+; 25 °C; 1:1 binding model; VHH samples after incubation with NHS-Fluo at molar ratio 0 (negative control), 1, 5 or 20 and ultrafiltration.

Assay [4] addresses T2, β2-Microglobulin (β2M). Put plainly: SPR; Biacore T200; β2M immobilized on a CM5 chip to 150 RU; 2-fold serial diluted VHH at 30 μL/min in HBS-EP+; 25 °C; 1:1 binding model; VHH sample 'origin' without modification or other treatment.

T2 sequence (P61769 21-119): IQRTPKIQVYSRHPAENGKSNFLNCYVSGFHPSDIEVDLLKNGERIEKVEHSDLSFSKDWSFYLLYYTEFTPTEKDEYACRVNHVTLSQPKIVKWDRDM
T1 sequence (P61769 21-119): as above

B1: NB-1 (VHH)
VHH: QVQLVESGGGLVQAGGSLRLSCAASGSTLDSYYIGWFRQAPGKEREGVSCISSSGNSIRYVDSVKDRFTISRDNGKNTAYLHINSLRPEDTAVYYCAASRRGRKPGLPCSLVRERYAYWGQGTQVTVSS
notes: VHH domain of NB-1; flexible (G4S)4 linker between the VHH domain and the His6 tag, written out from '(G4S)4'; VHH-(G4S)4-His6; Template of the homology model: PDB 4KDT (GMQE 0.99). 'Origin' = no treatment; '0' = negative control, all physical steps of the modification without NHS-Fluo; also called NB-1-Origin; NB-1-0; source: E. coli SHuffle T7, purified (HisTrap HP)
With B1, in the assay with β2-Microglobulin [1], the off-rate (koff) was 0.00669 s⁻¹ and the kon came out at 48500 M⁻¹ s⁻¹. In the assay with β2-Microglobulin [2], binding was put at a Kd of 61.8 nM, the off-rate (koff) is 0.00614 s⁻¹ and the kon came out at 99300 M⁻¹ s⁻¹.

B2: NB-1 modified with 20 times of NHS-Fluo (VHH)
VHH: QVQLVESGGGLVQAGGSLRLSCAASGSTLDSYYIGWFRQAPGKEREGVSCISSSGNSIRYVDSVKDRFTISRDNGKNTAYLHINSLRPEDTAVYYCAASRRGRKPGLPCSLVRERYAYWGQGTQVTVSS
notes: as the VHH domain of Dm2; flexible (G4S)4 linker between the VHH domain and the His6 tag, written out from '(G4S)4'; also called NB-1-20; labeled NB-1; source: E. coli SHuffle T7, purified (HisTrap HP), modified with NHS-Fluo, ultrafiltration
B2: in the assay with β2-Microglobulin [1], the koff was determined as 0.00863 s⁻¹ and the kon amounted to 29000 M⁻¹ s⁻¹.

B3: NB-1 (anti-β2M VHH, unmodified), VHH-(G4S)4-His6 (VHH)
VHH: QVQLVESGGGLVQAGGSLRLSCAASGSTLDSYYIGWFRQAPGKEREGVSCISSSGNSIRYVDSVKDRFTISRDNGKNTAYLHINSLRPEDTAVYYCAASRRGRKPGLPCSLVRERYAYWGQGTQVTVSS
notes: VHH domain of NB-1; flexible (G4S)4 linker between the VHH domain and the 6xHis-tag, written out from the printed formula; Homology model built on template PDB 4KDT (GMQE 0.99); also called NB-1-origin; NB-1-0; source: E. coli SHuffle T7, purified (HisTrap HP)
On to B3, for which the Kd in the assay with β2-Microglobulin (β2M) [3] stood at 138 nM; with β2-Microglobulin (β2M) [4], 60 nM.

B4: NB-1 modified with 1 time of NHS-Fluo (VHH)
VHH: QVQLVESGGGLVQAGGSLRLSCAASGSTLDSYYIGWFRQAPGKEREGVSCISSSGNSIRYVDSVKDRFTISRDNGKNTAYLHINSLRPEDTAVYYCAASRRGRKPGLPCSLVRERYAYWGQGTQVTVSS
notes: as the VHH domain of Dm2; flexible (G4S)4 linker between the VHH domain and the His6 tag, written out from '(G4S)4'; A mixture of isomers with different numbers and places of fluorescein, unmodified VHH among them; also called NB-1-1; source: E. coli SHuffle T7, purified (HisTrap HP), modified with NHS-Fluo, ultrafiltration
In the assay with β2-Microglobulin [1], B4 gave a Kd of 177 nM, a koff of 0.00761 s⁻¹ and a kon of 43000 M⁻¹ s⁻¹.

B5: NB-1 modified with 5 times of NHS-Fluo (VHH)
VHH: QVQLVESGGGLVQAGGSLRLSCAASGSTLDSYYIGWFRQAPGKEREGVSCISSSGNSIRYVDSVKDRFTISRDNGKNTAYLHINSLRPEDTAVYYCAASRRGRKPGLPCSLVRERYAYWGQGTQVTVSS
notes: as the VHH domain of Dm2; flexible (G4S)4 linker between the VHH domain and the His6 tag, written out from '(G4S)4'; A mixture of isomers with different numbers and places of fluorescein; also called NB-1-5; source: E. coli SHuffle T7, purified (HisTrap HP), modified with NHS-Fluo, ultrafiltration
In the assay with β2-Microglobulin [1], B5 showed a Kd of 202 nM, a koff of 0.00843 s⁻¹ and a kon of 41800 M⁻¹ s⁻¹.

B6: NB-3 (VHH)
VHH: QVQLVESGGGLVQPGGSLRLSCAASGFSLDYYAIGWFRQAPGKEREGVSCISSSDDSTYYAGSVKGRFKISRDNAKSTVYLQMNSLKPEDSAVYYCAALHSGNYYYTPSYICDAEMDYWGKGTLVTVSS
notes: VHH domain of NB-3; flexible (G4S)4 linker between the VHH domain and the His6 tag, written out from '(G4S)4'; VHH-(G4S)4-His6; Template of the homology model: PDB 5J56 (GMQE 0.93). 'Origin' = no treatment; '0' = negative control; also called NB-3-Origin; NB-3-0; source: E. coli SHuffle T7, purified (HisTrap HP)
In the assay with β2-Microglobulin [1], B6 displayed a koff of 0.00165 s⁻¹ and a kon of 1310 M⁻¹ s⁻¹. Moreover, in the assay with β2-Microglobulin [2], the Kd is 525 nM, the koff was determined as 0.00154 s⁻¹ and the kon was found to be 2940 M⁻¹ s⁻¹.

B7: NB-3 modified with 1 time of NHS-Fluo (VHH)
VHH: QVQLVESGGGLVQPGGSLRLSCAASGFSLDYYAIGWFRQAPGKEREGVSCISSSDDSTYYAGSVKGRFKISRDNAKSTVYLQMNSLKPEDSAVYYCAALHSGNYYYTPSYICDAEMDYWGKGTLVTVSS
notes: as the VHH domain of Dm10; flexible (G4S)4 linker between the VHH domain and the His6 tag, written out from '(G4S)4'; A mixture of isomers with different numbers and places of fluorescein; also called NB-3-1; source: E. coli SHuffle T7, purified (HisTrap HP), modified with NHS-Fluo, ultrafiltration
In the assay with β2-Microglobulin [1], B7 registered a Kd of 3490 nM, a koff of 0.00297 s⁻¹ and a kon of 849 M⁻¹ s⁻¹.

B8: NB-3 modified with 5 times of NHS-Fluo (VHH)
VHH: QVQLVESGGGLVQPGGSLRLSCAASGFSLDYYAIGWFRQAPGKEREGVSCISSSDDSTYYAGSVKGRFKISRDNAKSTVYLQMNSLKPEDSAVYYCAALHSGNYYYTPSYICDAEMDYWGKGTLVTVSS
notes: as the VHH domain of Dm10; flexible (G4S)4 linker between the VHH domain and the His6 tag, written out from '(G4S)4'; A mixture of isomers with different numbers and places of fluorescein; also called NB-3-5; source: E. coli SHuffle T7, purified (HisTrap HP), modified with NHS-Fluo, ultrafiltration
In the case of B8, in the assay with β2-Microglobulin [1], the Kd turned out to be 6620 nM, the koff was determined as 0.00369 s⁻¹ and the kon worked out at 558 M⁻¹ s⁻¹.

B9: NB-3 modified by a 20 fold amount of NHS-Fluo (VHH)
VHH: QVQLVESGGGLVQPGGSLRLSCAASGFSLDYYAIGWFRQAPGKEREGVSCISSSDDSTYYAGSVKGRFKISRDNAKSTVYLQMNSLKPEDSAVYYCAALHSGNYYYTPSYICDAEMDYWGKGTLVTVSS
notes: VHH domain as in m6 (NB-3); flexible (G4S)4 linker between the VHH domain and the 6xHis-tag, written out from the printed formula; Heterogeneous product of random amino modification; also called modified NB-3; NB-3 20:1; source: E. coli SHuffle T7, purified (HisTrap HP), then modified with NHS-Fluo (2 h, 4 °C), ultrafiltration
As to B9, the Kd with β2-Microglobulin (β2M) [3] was determined as 14100 nM.

B10: NB-3 modified with 20 times of NHS-Fluo (VHH)
VHH: QVQLVESGGGLVQPGGSLRLSCAASGFSLDYYAIGWFRQAPGKEREGVSCISSSDDSTYYAGSVKGRFKISRDNAKSTVYLQMNSLKPEDSAVYYCAALHSGNYYYTPSYICDAEMDYWGKGTLVTVSS
notes: as the VHH domain of Dm10; flexible (G4S)4 linker between the VHH domain and the His6 tag, written out from '(G4S)4'; A mixture of isomers with different numbers and places of fluorescein; also called NB-3-20; source: E. coli SHuffle T7, purified (HisTrap HP), modified with NHS-Fluo, ultrafiltration
In the assay with β2-Microglobulin [1], B10 showed a koff of 0.00402 s⁻¹ and a kon of 286 M⁻¹ s⁻¹.
